Laboratory results: US20250367128A1, “BIODEGRADABLE LIPIDOIDS AND COMPOSITIONS AND METHODS OF USE THEREOF FOR LIVER TARGETED DELIVERY” (The Trustees of the University of Pennsylvania, priority 2022, published 2025)
Strand notation (5' to 3'): a small letter for the sugar, then the base; units joined by * are phosphorothioate-linked, units joined directly phosphodiester-linked; [ ] holds rarer units or linkages, { } end groups; capitals alone tell only the bases. [PACE] = phosphonoacetate internucleotide linkage; m = 2'-O-methyl; r = 2'-OH (RNA)

Tested on: hPCSK9 exon 7
Test: In vitro validation of SpCas9 gRNA (plasmid transfection of cell line)
Assay type: cell-based, human
Conditions: data not shown
Source text: In this study, we perform pre-clinical gene editing studies using a PCSK9-hE7 mouse line having a humanized Pcsk9 gene. […] This allows for studies to use renucleic acids which can be directly translated to NHP or human. PCSK9 gene is a “safe harbor” for insertion of a gene therapy mini-gene. Previously, the SpCas9 gRNAs targeting hPCSK9 exon 7 was validated in vitro (plasmid transfection of cell line) with sgR1 yielded 32% indel formation (data not shown).

B1: sgR1: SpCas9 gRNA targeting hPCSK9 exon 7, SEQ ID NO: 1 (nucleic acid)
guide: mG*mA*mC*rCrArArCrUrUrUrGrGrCrCrGrCrUrGrUrGrGrUrUrUrUrArGrAmGmCmUmAmGmAmAmAmUmAmGmCrArArGrUrUrArArArArUrArArGrGrCrUrArGrUrCrCrGrUrUrArUrCrAmAmCmUmUmGmAmAmAmAmAmGmUmGmGmCmAmCmCmGmAmGmUmCmGmGmUmGmCmU[PACE]mU[PACE]mU[PACE]mU
In the case of B1, the indel formation is reported as 32%.
